According to publication PMC2199009:

Tests used:
[1] = molecular target: purified full length LFA-1 (lymphocyte function–associated antigen 1) (human (endogenous in JY)) (UniProt P20701); test: adhesion in a parallel plate flow cell
[2] = molecular target: GPI-anchored form of the LFA-1 I domain (I-GPI), stably expressed on baby hamster kidney cells (UniProt P20701); test: radioligand binding

Sequence of UniProt P20701 (P20701 26-1170, chain 1 of 2): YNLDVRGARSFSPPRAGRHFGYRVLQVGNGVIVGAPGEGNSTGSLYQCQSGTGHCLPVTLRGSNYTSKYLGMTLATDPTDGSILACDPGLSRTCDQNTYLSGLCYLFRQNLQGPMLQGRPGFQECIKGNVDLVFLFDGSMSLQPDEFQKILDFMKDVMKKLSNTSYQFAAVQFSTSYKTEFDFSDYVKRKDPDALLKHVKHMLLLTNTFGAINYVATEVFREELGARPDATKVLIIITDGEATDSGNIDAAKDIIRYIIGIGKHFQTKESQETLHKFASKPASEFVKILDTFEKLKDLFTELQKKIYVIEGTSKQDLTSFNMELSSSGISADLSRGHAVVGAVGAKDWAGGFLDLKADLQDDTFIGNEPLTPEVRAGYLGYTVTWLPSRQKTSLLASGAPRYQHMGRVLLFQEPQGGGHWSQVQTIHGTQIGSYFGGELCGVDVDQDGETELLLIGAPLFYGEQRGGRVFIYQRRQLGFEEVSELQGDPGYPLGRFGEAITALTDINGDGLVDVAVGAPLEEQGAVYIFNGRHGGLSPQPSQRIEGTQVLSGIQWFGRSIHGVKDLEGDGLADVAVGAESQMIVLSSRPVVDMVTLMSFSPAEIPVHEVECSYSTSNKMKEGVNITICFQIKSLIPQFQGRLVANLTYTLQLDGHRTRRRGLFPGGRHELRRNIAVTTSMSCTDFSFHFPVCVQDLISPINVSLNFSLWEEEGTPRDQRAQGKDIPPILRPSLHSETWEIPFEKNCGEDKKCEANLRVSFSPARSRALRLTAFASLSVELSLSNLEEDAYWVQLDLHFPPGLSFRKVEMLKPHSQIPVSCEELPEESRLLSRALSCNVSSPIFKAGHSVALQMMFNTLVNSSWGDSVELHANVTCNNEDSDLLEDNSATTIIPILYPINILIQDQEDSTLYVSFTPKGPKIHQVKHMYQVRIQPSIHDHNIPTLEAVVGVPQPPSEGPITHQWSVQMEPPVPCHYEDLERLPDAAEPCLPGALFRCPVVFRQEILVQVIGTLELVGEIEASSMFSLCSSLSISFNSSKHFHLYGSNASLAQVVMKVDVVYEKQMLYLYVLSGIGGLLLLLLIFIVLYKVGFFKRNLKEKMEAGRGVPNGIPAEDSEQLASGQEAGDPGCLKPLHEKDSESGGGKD
Sequence of UniProt P20701 (P05107 23-769, chain 2 of 2, further chain): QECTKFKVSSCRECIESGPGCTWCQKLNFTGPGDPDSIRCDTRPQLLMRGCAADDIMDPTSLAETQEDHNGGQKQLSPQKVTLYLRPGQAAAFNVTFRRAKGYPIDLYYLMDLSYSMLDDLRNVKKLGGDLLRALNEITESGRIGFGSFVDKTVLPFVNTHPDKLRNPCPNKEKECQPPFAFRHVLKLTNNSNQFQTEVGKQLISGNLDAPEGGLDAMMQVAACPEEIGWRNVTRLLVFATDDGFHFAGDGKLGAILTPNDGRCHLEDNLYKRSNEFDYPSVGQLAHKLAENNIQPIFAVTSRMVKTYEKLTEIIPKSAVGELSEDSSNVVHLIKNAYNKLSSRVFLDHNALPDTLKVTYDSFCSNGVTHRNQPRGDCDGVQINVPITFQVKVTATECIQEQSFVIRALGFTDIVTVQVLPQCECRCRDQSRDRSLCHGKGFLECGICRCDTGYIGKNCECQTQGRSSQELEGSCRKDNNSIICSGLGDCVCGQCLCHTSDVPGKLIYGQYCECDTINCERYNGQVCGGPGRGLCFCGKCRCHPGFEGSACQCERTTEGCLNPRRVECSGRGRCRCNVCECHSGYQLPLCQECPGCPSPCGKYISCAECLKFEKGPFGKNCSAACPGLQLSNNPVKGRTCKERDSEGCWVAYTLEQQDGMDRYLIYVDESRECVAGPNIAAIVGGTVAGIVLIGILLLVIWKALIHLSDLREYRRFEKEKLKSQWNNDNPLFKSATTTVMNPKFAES

percent cells free [1] [%] | percent cells rolling [1] [%] | percent cells stable [1] [%] | IC50 [2] [µM] | Substance
73 | 0 | 26 |  | ICAM-1 GPI on transfected baby hamster kidney cells (domain or fragment)
 |  |  | 150 | soluble ICAM-1 (sICAM-1) (domain or fragment)
